Source: paper PMC8530329 (PLoS Pathogens, 2021)

Target: T1, SARS-CoV-2 S_(fm2P) (SARS-CoV-2, original (reference) …, 682RRAR685 → 682GSAG685 | 986KV987 → 986PP987)
T1 construct: also called ectodomain of the SARS-CoV-2 S protein; SARS-CoV-2 S protein
Test: cryo-EM structure
Details: both partners purified

B1: RBD-chAb-25 (antibody, V domains shown)
VH: EVQLEESGGGLVKPGGSLKLSCAASGFTFSSYTMSWVRQSPEKRLEWVAEISSGGTYTNYPDTATGRFTISRDNAKNTLYLEMSSLRSEDTAMYYCANFGNYEEIAYWGQGTLVTVSA
VL: QIVLTQSPAIMSVSLGERVTMTCTASSSVSSSYLHWYQQKPGSSPKLWIYSTSNLASGVPARFSGSGSGTSYSLTISSMEAEDAATYYCHQYHRSPYTFGGGTKLEIK
notes: also called S-chAb-25 (in complex with S); source: Expi-293 cells, co-transfected, purified (protein G column)
  stoichiometry N: 3 chAb (Fab) per S trimer

B2: RBD-chAb-45 (antibody, V domains shown)
VH: EVQLQQSGPELVKPGASVKISCKTSGYTFTEYTIYWVKQSLGKSLEWIGGNNPNNDDTTYKQFFKGKATLTVDKSSSTAYMELRSLTSEDSAVYYCARDGYPYYYALDFWGQGTSVTVSS
VL: DIVMTQSQKFMSTSVGDRVSVTCKSSQNVGTNVAWYQQKPGQSPKALIYSASYRYSGVPDHFTGSGSGTDFTLTISNVQSADLAEYFCQQYNNYPWTFGGGTKLEIK
notes: also called S-chAb-45 (in complex with S); source: Expi-293 cells, co-transfected, purified (protein G column)
  stoichiometry N: 3 chAb (Fab) per S trimer
